Source: patent publication US20230392126A1, “TISSUE ORGANOIDS” (priority 2016, published 2023)

What was measured:
epidermal stem cells = experiment: Anchorage-independent growth in soft agar; settings: SCC cancer initiating cells as positive control
[1] = Stability and tolerance of transplanted skin organoids in immunocompetent hosts; type: in vivo, mouse; settings: isogenic hosts CD1 and C57BL/6
Excerpt: For grafting with skin organoids, CD1 (isogenic mouse keratinocyte transplantation) males or Nude (human keratinocyte transplantation) females with the ages of 6-8 weeks were anesthetized. A silicone chamber bottom with the interior diameter of 0.8 cm and the exterior diameter of 1.5 cm was implanted on its shaved dorsal mid-line skin, which was used to hold the skin graft. A chamber cap was installed to seal the chamber right after a piece of graft was implanted. About one week later, the chamber cap was removed to expose the graft to air. A single dose of 0.2 mg α-CD4 (GK1.5) and 0.2 mg α-CD8 (2.43.1) antibodies was administered intraperitoneally for skin grafting.
Optical imaging was performed in the integrated small animal imaging research resource (iSAIRR) at the University of Chicago. Bioluminescence images were acquired on an IVIS Spectrum (Caliper Life Sciences®, Alameda, CA) after animal was injected with luciferin (100 mg/kg). […]
Grafted cells in immunocompetent hosts readily expressed exogenous genes, such as Luciferase and Histone H2B-RFP (FIG. 1B-D), which were transduced to the cells with lentivirus. […] Importantly, the tissue organoid with expression of exogenous gene, such as Luciferase and H2B-RFP, was stable in vivo for more than 5 months in immunocompetent hosts, as determined by intravital bioluminescence imaging and tissue histology. […]

[2] = Extinction and cocaine-induced reinstatement of CPP; type: in vivo, mouse; settings: grafted after CPP acquisition; priming 15 mg/kg cocaine
Procedure: (§1) Extinction and reinstatement of CPP: Following CPP acquisition, mice underwent extinction, in which the procedure was identical to that in the test day. In each extinction day, mice were allowed to explore the entire chambers for 20 min and time spent in each area was recorded. Extinction was performed until the CPP decreased to a level that was not different from that of the pretest in consecutive two days. On the following day of the last extinction, mice underwent reinstatement procedures, in which mice that were trained for cocaine CPP received an i.p. injection of 15 mg/kg cocaine, and mice that were trained for ethanol CPP received an i.p. injection of 1 g/kg ethanol. Immediate after injection, mice were allowed to explore the entire chambers for 20 min and time spent in each area was recorded.
(§2) Specific methods: One group of GhBChE and one group of GWT mice (n=9 in each group) were trained for cocaine CPP 7 days after engraftment (FIG. 18A). Mice underwent pretest on Day 1, four days of cocaine conditioning day 2 to Day 5, and CPP test on Day 6. One group of GhBChE and one group of GWT mice (n=8 in each group) were trained for ethanol CPP 7 days after engraftment (FIG. 18B). Mice underwent pretest on Day 1, four ethanol conditioning day 2 to Day 5, and CPP test on Day 6. […]

[3] = Extinction and ethanol-induced reinstatement of CPP; type: in vivo, mouse; settings: 1 g/kg ethanol i.p., specificity control
Procedure: as §1, §2

[4] = Cocaine hydrolysis activity in vitro (clearance assay with conditioned medium)
[5] = hBChE in blood by ELISA, mice grafted with mouse skin organoids; type: in vivo
Excerpt: To efficiently transplant mouse epidermal progenitor cells, a new organotypic culture model with mouse epidermal progenitor cells was developed in vitro by culturing the cells on top of acellularized mouse dermis. Exposure to the air/liquid interface can induce stratification of cultured cells to generate a skin-like organoid in vitro. […] To investigate the potential therapeutic effect of hBChE expression in vivo, we transplanted the organoids to isogenic host animals (CD1 and C57BL/6) (FIGS. 22A and 22B-C). […] Expression of hBChE in grafted animals was stable for more than 10 weeks (FIG. 22H).

human epidermal cells = type: cell-based

B1: hBChE: modified human butyrylcholinesterase (E30-6, SEQ ID NO: 41), cocaine hydrolase, expressed from engineered epidermal cells / skin grafts (protein)
chain: MHSKVTIICIRFLFWFLLLCMLIGKSHTEDDIIIATKNGKVRGMNLTVFGGTVTAFLGIPYAQPPLGRLRFKKPQSLTKWSDIWNATKYANSCCQNIDQSFPGFHGSEMWNPNTDLSEDCLYLNVWIPAPKPKNATVLIWIYGGGFQTGTSSLHVYDGKFLARVERVIVVSMNYRVGALGFLALPGNPEAPGNMGLFDQQLALQWVQKNIAAFGGNPKSVTLFGESSGAASVSLHLLSPGSHSLFTRAILQSGSANAPWAVTSLYEARNRTLNLAKLTGCSRENETEIIKCLRNKDPQEILLNEAFVVPYGTALGVNFGPTVDGDFLTDMPDILLELGQFKKTQILVGVNKDEGTWFLVGGAPGFSKDNNSIITRKEFQEGLKIFFPGVSEFGKESILFHYTDWVDDQRPENYREALGDVVGDYNFICPALEFTKKFSEWGNNAFFYYFEHRSSKLPWPEWMGVMHGYEIEFVFGLPLERRDNYTKAEEILSRSIVKRWANFAKYGNPNETQNNSTSWPVFKSTEQKYLTLNTESTRIMTKLRAQQCRFWTSFFPKVLEMTGNIDEAEWEWKAGFHRWNNYMMDWKNQFNDYTSKKESCVGL
modifications: Human mutant BChE
Epidermal stem cells
  anchorage-independent growth (tumorigenicity): cannot grow in suspension
[1]
  time without significant rejection of skin grafts: at least 5 months
[2]
  cocaine-induced reinstatement of preference: restored in the GWT mice but not in the GhBChE mice
[3]
  ethanol-induced reinstatement of CPP: similarly reinstated in both GhBChE and GWT mice
[4]
  cocaine hydrolysis activity of conditioned medium: significantly induced degradation of cocaine in vitro
[5]; hosts with intact immune systems
  duration of stable hBChE expression in grafted animals: more than 10 weeks
[5]; mice grafted with hBChE-expressing mouse cells
  level of human BChE in the blood: significantly elevated levels of human BChE in the blood
Human epidermal cells
  hBChE production: strong hBChE production
